For this assay, the target named is T1, HERC2 (hect domain and RCC-like domain 2) (human, UniProt O95714 1-4834).
T1 construct: Endogenous protein of 293T or HeLa cells, found in BRCA1 immune precipitates from cell lysates; also called endogenous HERC2
Nature of the assay: immunoprecipitation with anti-BRCA1 antibody, synchronized HeLa cells. How it is done: For the immunoprecipitation of a BRCA1 complex, the cell lysate was allowed to react with an anti-BRCA1 antibody at 4° C. for 1 hour. Thereafter, a precipitation reaction was carried out at 4° C. for 1 hour using Protein A and G sepharose (Invitrogen). The precipitate was washed with a 0.5% NP-40 buffer 3 times, and it was then re-suspended in an SDS sample buffer (50 mM Tris-HCl (pH6.8), 0.2% bromophenol blue, 10% glycerol, 2% SDS, and 100 mM DTT). The suspension was boiled for 3 minutes. As a peptide competition control, an equal amount of blocking peptide was added.

T1 sequence (O95714 other isoform, or with tags, fused parts or gaps limits assumed): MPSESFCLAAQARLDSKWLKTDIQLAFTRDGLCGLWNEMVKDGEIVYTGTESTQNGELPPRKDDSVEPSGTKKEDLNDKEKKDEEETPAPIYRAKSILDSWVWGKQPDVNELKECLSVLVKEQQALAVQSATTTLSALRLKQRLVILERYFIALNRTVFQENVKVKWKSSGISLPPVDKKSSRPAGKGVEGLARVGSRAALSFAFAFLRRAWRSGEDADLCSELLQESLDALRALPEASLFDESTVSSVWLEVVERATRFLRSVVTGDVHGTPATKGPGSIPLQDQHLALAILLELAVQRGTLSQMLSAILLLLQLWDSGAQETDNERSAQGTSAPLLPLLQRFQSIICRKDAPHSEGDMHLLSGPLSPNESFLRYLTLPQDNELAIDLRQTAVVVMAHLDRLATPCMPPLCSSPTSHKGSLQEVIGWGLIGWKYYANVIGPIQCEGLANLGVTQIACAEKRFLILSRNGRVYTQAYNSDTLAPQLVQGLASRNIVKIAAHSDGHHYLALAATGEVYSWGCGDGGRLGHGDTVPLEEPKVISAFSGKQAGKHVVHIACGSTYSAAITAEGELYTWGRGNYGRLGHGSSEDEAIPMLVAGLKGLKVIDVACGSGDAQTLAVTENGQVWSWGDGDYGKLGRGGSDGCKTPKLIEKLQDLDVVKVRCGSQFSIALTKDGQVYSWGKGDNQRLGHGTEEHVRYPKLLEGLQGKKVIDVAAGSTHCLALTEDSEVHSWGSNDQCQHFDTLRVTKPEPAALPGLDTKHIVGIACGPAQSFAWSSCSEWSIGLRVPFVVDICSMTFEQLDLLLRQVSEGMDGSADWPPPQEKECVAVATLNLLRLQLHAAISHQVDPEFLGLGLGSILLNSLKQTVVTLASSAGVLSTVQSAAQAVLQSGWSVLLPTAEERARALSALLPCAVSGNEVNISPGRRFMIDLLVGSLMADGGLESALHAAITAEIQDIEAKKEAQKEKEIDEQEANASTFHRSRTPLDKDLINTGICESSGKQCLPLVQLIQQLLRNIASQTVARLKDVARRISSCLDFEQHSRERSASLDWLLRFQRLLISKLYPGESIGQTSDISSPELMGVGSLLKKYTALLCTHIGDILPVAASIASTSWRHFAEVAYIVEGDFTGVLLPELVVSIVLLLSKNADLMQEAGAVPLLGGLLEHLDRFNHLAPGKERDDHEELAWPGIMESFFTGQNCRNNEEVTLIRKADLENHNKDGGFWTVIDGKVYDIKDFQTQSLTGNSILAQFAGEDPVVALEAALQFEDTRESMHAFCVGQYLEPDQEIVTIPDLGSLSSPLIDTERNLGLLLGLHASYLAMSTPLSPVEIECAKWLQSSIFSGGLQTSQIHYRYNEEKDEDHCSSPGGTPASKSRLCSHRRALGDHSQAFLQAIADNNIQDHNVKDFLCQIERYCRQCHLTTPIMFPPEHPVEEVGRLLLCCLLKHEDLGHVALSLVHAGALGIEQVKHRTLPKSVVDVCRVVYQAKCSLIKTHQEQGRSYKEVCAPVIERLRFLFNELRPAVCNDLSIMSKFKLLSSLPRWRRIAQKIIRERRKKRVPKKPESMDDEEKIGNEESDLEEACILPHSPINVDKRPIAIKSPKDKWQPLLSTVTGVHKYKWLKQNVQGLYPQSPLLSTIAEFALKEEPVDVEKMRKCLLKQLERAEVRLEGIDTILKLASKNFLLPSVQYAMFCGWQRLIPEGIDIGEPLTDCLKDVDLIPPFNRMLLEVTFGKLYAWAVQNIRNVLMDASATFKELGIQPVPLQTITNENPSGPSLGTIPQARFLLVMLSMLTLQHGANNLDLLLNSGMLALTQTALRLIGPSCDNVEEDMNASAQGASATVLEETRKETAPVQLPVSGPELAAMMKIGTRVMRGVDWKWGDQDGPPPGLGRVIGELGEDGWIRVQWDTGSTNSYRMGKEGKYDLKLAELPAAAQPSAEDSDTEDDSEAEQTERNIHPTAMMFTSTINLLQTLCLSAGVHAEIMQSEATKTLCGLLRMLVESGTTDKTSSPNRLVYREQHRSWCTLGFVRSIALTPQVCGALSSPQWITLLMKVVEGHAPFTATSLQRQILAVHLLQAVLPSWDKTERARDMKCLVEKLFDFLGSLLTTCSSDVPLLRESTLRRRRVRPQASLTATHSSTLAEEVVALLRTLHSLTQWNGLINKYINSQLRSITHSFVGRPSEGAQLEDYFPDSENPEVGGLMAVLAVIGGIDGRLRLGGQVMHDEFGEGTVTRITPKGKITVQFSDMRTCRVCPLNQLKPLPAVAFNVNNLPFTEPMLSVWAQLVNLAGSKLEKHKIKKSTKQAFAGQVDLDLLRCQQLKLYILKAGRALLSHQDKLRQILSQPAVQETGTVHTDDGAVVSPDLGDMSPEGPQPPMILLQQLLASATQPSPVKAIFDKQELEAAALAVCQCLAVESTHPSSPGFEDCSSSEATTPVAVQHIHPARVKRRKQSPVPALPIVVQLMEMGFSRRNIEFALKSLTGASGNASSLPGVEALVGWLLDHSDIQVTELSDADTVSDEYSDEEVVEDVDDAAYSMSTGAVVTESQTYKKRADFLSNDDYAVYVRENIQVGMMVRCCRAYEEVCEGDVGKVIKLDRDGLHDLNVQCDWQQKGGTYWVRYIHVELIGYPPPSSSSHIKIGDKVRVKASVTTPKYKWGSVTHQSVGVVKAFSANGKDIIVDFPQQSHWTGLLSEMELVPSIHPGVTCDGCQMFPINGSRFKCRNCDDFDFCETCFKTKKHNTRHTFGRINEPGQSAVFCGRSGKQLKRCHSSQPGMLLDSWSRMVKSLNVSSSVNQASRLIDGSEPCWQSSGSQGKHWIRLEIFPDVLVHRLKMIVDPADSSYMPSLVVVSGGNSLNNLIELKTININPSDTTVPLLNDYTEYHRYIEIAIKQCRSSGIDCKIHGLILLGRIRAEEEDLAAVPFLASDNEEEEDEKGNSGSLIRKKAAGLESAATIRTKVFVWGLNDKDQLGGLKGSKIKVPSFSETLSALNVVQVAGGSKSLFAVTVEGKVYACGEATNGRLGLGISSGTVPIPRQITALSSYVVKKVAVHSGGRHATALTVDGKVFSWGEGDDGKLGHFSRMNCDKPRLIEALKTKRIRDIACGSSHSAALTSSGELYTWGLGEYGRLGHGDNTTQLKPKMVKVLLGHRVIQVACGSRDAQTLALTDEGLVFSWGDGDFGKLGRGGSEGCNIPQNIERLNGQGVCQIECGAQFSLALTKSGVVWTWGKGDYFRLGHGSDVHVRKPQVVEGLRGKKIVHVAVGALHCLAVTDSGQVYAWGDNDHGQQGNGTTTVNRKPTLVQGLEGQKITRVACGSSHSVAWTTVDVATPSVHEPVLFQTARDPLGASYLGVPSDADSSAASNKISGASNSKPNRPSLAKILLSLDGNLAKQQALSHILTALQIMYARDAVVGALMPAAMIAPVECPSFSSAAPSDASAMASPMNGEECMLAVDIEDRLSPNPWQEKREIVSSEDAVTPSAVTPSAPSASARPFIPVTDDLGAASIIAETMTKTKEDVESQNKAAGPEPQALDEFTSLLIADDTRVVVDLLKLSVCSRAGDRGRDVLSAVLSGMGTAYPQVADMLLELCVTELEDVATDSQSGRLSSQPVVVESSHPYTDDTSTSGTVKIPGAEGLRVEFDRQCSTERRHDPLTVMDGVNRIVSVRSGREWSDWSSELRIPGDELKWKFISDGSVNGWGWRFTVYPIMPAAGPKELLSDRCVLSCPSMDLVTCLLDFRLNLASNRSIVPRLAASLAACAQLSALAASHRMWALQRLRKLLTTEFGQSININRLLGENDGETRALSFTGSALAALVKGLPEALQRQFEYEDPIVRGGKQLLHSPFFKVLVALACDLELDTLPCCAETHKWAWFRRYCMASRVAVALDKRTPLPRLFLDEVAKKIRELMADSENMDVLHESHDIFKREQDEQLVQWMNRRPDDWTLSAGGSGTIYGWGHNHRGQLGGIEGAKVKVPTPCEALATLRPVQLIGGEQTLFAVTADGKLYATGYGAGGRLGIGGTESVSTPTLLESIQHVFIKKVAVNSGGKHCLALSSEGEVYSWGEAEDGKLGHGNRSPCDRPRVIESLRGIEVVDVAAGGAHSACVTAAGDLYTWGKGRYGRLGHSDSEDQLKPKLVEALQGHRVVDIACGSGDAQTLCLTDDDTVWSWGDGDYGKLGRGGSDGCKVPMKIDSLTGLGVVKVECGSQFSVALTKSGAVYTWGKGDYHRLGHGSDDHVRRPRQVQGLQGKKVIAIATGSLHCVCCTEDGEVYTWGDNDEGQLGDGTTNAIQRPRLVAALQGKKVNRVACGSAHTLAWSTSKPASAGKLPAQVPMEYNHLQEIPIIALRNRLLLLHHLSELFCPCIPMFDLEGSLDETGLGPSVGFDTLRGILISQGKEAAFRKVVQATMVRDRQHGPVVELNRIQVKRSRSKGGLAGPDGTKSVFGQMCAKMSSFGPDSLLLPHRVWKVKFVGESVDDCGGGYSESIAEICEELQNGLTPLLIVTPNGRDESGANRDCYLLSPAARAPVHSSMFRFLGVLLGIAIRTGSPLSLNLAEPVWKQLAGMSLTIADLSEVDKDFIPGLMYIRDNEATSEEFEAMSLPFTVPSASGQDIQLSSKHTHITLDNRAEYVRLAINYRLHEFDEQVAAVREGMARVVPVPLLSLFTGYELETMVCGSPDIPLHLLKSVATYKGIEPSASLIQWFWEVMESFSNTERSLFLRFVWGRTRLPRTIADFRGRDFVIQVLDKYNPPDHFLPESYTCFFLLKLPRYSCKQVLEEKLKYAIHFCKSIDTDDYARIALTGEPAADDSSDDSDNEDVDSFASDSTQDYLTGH

B1: BRCA1 (endogenous) (other, UniProt P38398 1-1863, looked up)
chain: MDLSALRVEEVQNVINAMQKILECPICLELIKEPVSTKCDHIFCKFCMLKLLNQKKGPSQCPLCKNDITKRSLQESTRFSQLVEELLKIICAFQLDTGLEYANSYNFAKKENNSPEHLKDEVSIIQSMGYRNRAKRLLQSEPENPSLQETSLSVQLSNLGTVRTLRTKQRIQPQKTSVYIELGSDSSEDTVNKATYCSVGDQELLQITPQGTRDEISLDSAKKAACEFSETDVTNTEHHQPSNNDLNTTEKRAAERHPEKYQGSSVSNLHVEPCGTNTHASSLQHENSSLLLTKDRMNVEKAEFCNKSKQPGLARSQHNRWAGSKETCNDRRTPSTEKKVDLNADPLCERKEWNKQKLPCSENPRDTEDVPWITLNSSIQKVNEWFSRSDELLGSDDSHDGESESNAKVADVLDVLNEVDEYSGSSEKIDLLASDPHEALICKSERVHSKSVESNIEDKIFGKTYRKKASLPNLSHVTENLIIGAFVTEPQIIQERPLTNKLKRKRRPTSGLHPEDFIKKADLAVQKTPEMINQGTNQTEQNGQVMNITNSGHENKTKGDSIQNEKNPNPIESLEKESAFKTKAEPISSSISNMELELNIHNSKAPKKNRLRRKSSTRHIHALELVVSRNLSPPNCTELQIDSCSSSEEIKKKKYNQMPVRHSRNLQLMEGKEPATGAKKSNKPNEQTSKRHDSDTFPELKLTNAPGSFTKCSNTSELKEFVNPSLPREEKEEKLETVKVSNNAEDPKDLMLSGERVLQTERSVESSSISLVPGTDYGTQESISLLEVSTLGKAKTEPNKCVSQCAAFENPKGLIHGCSKDNRNDTEGFKYPLGHEVNHSRETSIEMEESELDAQYLQNTFKVSKRQSFAPFSNPGNAEEECATFSAHSGSLKKQSPKVTFECEQKEENQGKNESNIKPVQTVNITAGFPVVGQKDKPVDNAKCSIKGGSRFCLSSQFRGNETGLITPNKHGLLQNPYRIPPLFPIKSFVKTKCKKNLLEENFEEHSMSPEREMGNENIPSTVSTISRNNIRENVFKEASSSNINEVGSSTNEVGSSINEIGSSDENIQAELGRNRGPKLNAMLRLGVLQPEVYKQSLPGSNCKHPEIKKQEYEEVVQTVNTDFSPYLISDNLEQPMGSSHASQVCSETPDDLLDDGEIKEDTSFAENDIKESSAVFSKSVQKGELSRSPSPFTHTHLAQGYRRGAKKLESSEENLSSEDEELPCFQHLLFGKVNNIPSQSTRHSTVATECLSKNTEENLLSLKNSLNDCSNQVILAKASQEHHLSEETKCSASLFSSQCSELEDLTANTNTQDPFLIGSSKQMRHQSESQGVGLSDKELVSDDEERGTGLEENNQEEQSMDSNLGEAASGCESETSVSEDCSGLSSQSDILTTQQRDTMQHNLIKLQQEMAELEAVLEQHGSQPSNSYPSIISDSSALEDLRNPEQSTSEKAVLTSQKSSEYPISQNPEGLSADKFEVSADSSTSKNKEPGVERSSPSKCPSLDDRWYMHSCSGSLQNRNYPSQEELIKVVDVEEQQLEESGPHDLTETSYLPRQDLEGTPYLESGISLFSDDPESDPSEDRAPESARVGNIPSSTSALKVPQLKVAESAQSPAAAHTTDTAGYNAMEESVSREKPELTASTERVNKRMSMVVSGLTPEEFMLVYKFARKHHITLTNLITEETTHVVMKTDAEFVCERTLKYFLGIAGGKWVVSYFWVTQSIKERKMLNEHDFEVRGDVVNGRNHQGPKRARESQDRKIFRGLEICCYGPFTNMPTDQLEWMVQLCGASVVKELSSFTLGTGVHPIVVVQPDAWTEDNGFHAIGQMCEAPVVTREWVLDSVALYQCQELDTYLIPQIPHSHY
notes: Endogenous protein, precipitated from cell lysate with an anti-BRCA1 antibody; also called endogenous BRCA1
B1: the binding result was “binds”.

The record behind these values is US20100113557A1 (ST MARIANNA UNIVERSITY SCHOOL OF MEDICINE, published 2010).
